For this series, the system named is internally quenched peptide probe (MCA)-Gly-Ser-Ala-Ile-Ala-Leu-Tyr-Gly-Gly-Ser-Lys (DNP)-D-Arg with CM AIALY (SEQ ID NO: 5).

Sequence of human recombinant MMP9 (R&D Systems, catalog No: 911-MP) (chain, as listed by the source): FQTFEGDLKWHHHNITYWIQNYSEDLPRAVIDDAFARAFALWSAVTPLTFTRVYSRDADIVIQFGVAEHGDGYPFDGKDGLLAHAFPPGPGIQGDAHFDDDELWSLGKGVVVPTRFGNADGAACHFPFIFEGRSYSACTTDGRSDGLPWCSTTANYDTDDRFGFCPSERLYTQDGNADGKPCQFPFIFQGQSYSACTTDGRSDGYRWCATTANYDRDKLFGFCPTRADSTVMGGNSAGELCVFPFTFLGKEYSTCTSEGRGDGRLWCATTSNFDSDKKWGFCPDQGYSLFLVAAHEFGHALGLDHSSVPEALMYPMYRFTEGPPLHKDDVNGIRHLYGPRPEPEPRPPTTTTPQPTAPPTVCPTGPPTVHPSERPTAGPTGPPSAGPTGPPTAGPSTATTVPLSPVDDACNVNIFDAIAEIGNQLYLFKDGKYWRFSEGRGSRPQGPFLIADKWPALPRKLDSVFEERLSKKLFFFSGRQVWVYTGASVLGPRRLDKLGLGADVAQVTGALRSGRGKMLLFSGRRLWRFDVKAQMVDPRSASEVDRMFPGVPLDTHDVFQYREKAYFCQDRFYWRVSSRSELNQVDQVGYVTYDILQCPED

On to “human recombinant MMP9 (R&D Systems, catalog No: 911-MP)”, for which the Probe Cleavage (kcat/KM) came out at 41000 M⁻¹ s⁻¹ and the Probe Cleavage (pM/s) amounted to 87.7 pM/s.
